Where a SMILES comes first, the peptide text is derived from it. Where no end group is shown, it is not given here. [ ]: non-standard residue; d: D form.
These molecules were tested against T1, human FOXP3 (FOXP3-6His) (Homo sapiens, UniProt Q9BZS1) (assay: Peptide binding to FOXP3 by surface plasmon resonance (SPR)). Settings: peptides 1-20 μM; ratio to p60 (SEQ ID NO: 1).
T1 construct: 6xHis (C); made in house; host or cells: E. coli BL21 (DE3)
T1 sequence (Q9BZS1 1-431): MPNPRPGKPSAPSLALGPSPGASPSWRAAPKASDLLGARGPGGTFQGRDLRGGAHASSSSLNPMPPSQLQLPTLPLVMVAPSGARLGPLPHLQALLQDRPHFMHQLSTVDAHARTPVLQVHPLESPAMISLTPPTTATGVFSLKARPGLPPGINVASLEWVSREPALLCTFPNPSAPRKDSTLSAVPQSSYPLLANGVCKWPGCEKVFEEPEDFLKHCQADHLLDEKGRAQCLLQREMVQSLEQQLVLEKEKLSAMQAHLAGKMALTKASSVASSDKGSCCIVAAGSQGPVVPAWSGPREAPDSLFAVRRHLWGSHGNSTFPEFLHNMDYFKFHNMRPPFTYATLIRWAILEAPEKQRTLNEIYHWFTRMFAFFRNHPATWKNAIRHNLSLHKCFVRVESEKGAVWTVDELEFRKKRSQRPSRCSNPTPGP
Excerpt: Plasmid pET20b FOXP3-His was generated to produce the human FOXP3 tagged with 6 histidines at the C terminus of the protein. Briefly, plasmid pDEST15-FOXP3 (provided by Dr. Casal, Madrid, Spain) was used as template to amplify FOXP3 by PCR using the primers Upper FOXP3 Ndel catatgcccaaccccaggc (SEQ ID NO: 55) and Lower FOXP3 […] (SEQ ID NO: 56). The resulting fragment was subcloned in pET20b at Ndel and NotI sites. pET45b His-Runx1 was obtained by PCR of activated human CD4 T cells obtained from healthy volunteers (after the signature of an informed consent) using the primers Upper Runx1 atgcgtatccccgtagatg (SEQ ID NO: 57) and Lower Runx1 […] (SEQ ID NO: 58) and the fragment was cloned in pcDNA3.1. Then, pET45b and pcDNA3.1-Runx1 were digested with BamHI and NotI and ligated to obtain pET45b-Runx1. Plasmids were used to transform BL21 cells (DE3; Novagen, Schwalbach, Germany) for the expression of the recombinant protein. The transformed BL21 cells were grown in LB medium at 37° C. (1 liter of final culture medium) (with ampicilin 0.1 mg/ml). Once the OD of the culture was between 0.5 and 1.0, IPTG (0.4 mM, final concentration) was added. Bacteria were then cultured overnight in agitation and centrifuged for 10 min at 8000 rpm. Cell pellet was then resuspended in 4 ml Tris-HCl 0.1 M and frozen at −80° C. Cell pellet was then thawed and incubated with lisozyme (25 KU) and a protease inhibitor cocktail for 15 min at 30° C. before cell lysis induced with a French-press. The resultant pool was then centrifuged during 20 min at 11.000 rpm). The recombinant protein was purified from the soluble fraction of French-press cell extracts by affinity chromatography (Histrap, Pharmacia) following manufacturer's instructions and using an FPLC platform (AKTA, Pharmacia). Plasmid pDEST15-FOXP3 encoding the fusion protein GST-FOXP3 (GST fused to the isoform A from human FOXP3 gene), was transformed into BL21 cells for the expression of the recombinant protein. GST-FOXP3 protein was purified from the soluble fraction of cell extracts obtained, as described above, by affinity chromatography (GSTrap; Amersham, Piscataway, N.J.) using a fast protein liquid chromatography platform (AKTA; Amersham) following manufacturer's instructions. The eluted proteins were desalted using Hitrap desalting columns (Pharmacia) and analyzed by SDS-PAGE using Coomassie blue (Bio-Safe Coomassie reagent; Bio-Rad, Hercules, Calif.) and by Western blot.
Screening of peptide binding to FOXP3 was performed by surface plasmon resonance (SPR) using ProteOn XPR36 (Bio-Rad, Hercules Calif., USA) optical biosensor. Recombinant protein FOXP3-6His was produced and purified from E. coli as disclosed in previous section and was immobilized covalently onto a GLM sensor chip (176-5012, Bio-Rad) using sulfo-NHS and EDC (Bio-Rad) coupling reagents and the manufacturer's instructions. After protein immobilization, chip surface was treated with ethanolamine to deactivate the excess of reactive esters.
Individual solutions of the peptides to be tested (1-20 μM) were injected by triplicate in running buffer (Phosphate buffered saline, 0.005% (v/v) Tween 20, pH 7.4) at a flow of 30 μl/min. The interspot signal (obtained in the chip surface not immobilized with protein) was used as reference. The results are summarized in Table 6 below as the ratio Peptide of the invention/p60.

Molecule	Binding to Foxp3 Ratio binding Peptide/p60 (fold change)
7 (RSFQSFRKMWPFFAM) [compound 7]	1.4
8 (RYFQSFRKMWPFFAM) [compound 8]	1.4
11 (RNFQSFRKMWPFFAM) [compound 11]	1.4
12 (RKFQSFRKMWPFFAM) [compound 12]	2.2
18 (RDLQSFRKMWPFFAM) [compound 18]	1.9
21 (RDFQNFRKMWPFFAM) [compound 21]	3.2
23 (RDFQEFRKMWPFFAM) [compound 23]	1.3
24 (RDFQYFRKMWPFFAM) [compound 24]	4.6
25 (RDFQKFRKMWPFFAM) [compound 25]	4.0
28 (RDFQSFRHMWPFFAM) [compound 28]	2.6
29 (RDFQSFRRMWPFFAM) [compound 29]	1.4
32 (RDFQSFRKMWNFFAM) [compound 32]	1.4
33 (RDFQSFRKMWVFFAM) [compound 33]	1.3
38 (RDFQSFRKMWAFFA[dM]-NH2; not fully specified (N-terminus)) [compound 38]	1.1
39 (RDFQ[dA]FRKMWPFFAM-NH2; not fully specified (N-terminus)) [compound 39]	3.3
40 (RDFQSFRKMW[dA]FFAM-NH2; not fully specified (N-terminus)) [compound 40]	2.2
42 (H-RAFQAFRKMWPFFAM-OH) [compound 42]	4.1
43 (R[dA]FQ[dA]FRKMWPFFAM-NH2; not fully specified (N-terminus)) [compound 43]	4.9
49 (cyclo(RDFQSFRKMWPFFAM); also: R1 and R2 form a linker birradical which is -C(=O)-) [compound 49]	5.0
CSCC[C@H](NC(=O)[C@H](C)NC(=O)[C@H](Cc1ccccc1)NC(=O)[C@H](Cc1ccccc1)NC(=O)[C@@H]1CCCN1C(=O)[C@H](Cc1c[nH]c2ccccc12)NC(=O)[C@H](CCSC)NC(=O)[C@H](CCCCN)NC(=O)[C@H](CCCNC(=N)N)NC(=O)[C@H](Cc1ccccc1)NC(=O)[C@H](CO)NC(=O)[C@H](CCC(N)=O)NC(=O)[C@H](Cc1ccccc1)NC(=O)[C@@H](CC(=O)O)NC(=O)[C@H](CCCNC(=N)N)NC(=O)CNC(C)=O)C(N)=O [compound 4] (Ac-GR[dD]FQSFRKMWPFFAM-NH2; C-terminus assumed)	4.2

Continued, values first:

Binding to Foxp3 Ratio binding Peptide/p60 (fold change)	Molecule
3.3	6 (R[dA]FQSFRKMWPFFAM) [compound 6]
3.7	16 (RDWQSFRKMWPFFAM) [compound 16]
3.3	17 (RDYQSFRKMWPFFAM) [compound 17]
3.7	20 (RDFQRFRKMWPFFAM) [compound 20]
2.4	22 (RDFQWFRKMWPFFAM) [compound 22]
2.8	31 (RDFQSFRKMWRFFAM) [compound 31]
1.3	35 (RDFQSFRKMWYFFAM) [compound 35]
4.1	37 (RDFQSFRKMWKFFAM) [compound 37]
3.0	44 (RAFQSFRKMWAFFAM-NH2; not fully specified (N-terminus)) [compound 44]

— patent US10654896B2, “FoxP3-binding peptides and uses thereof” (FUNDACIÓN PARA LA INVESTIGACIÓN MÉDICA APLICADA, priority 2016, dated 2020)
